{"source": "the supplement of paper PMC9112550", "about": "“Optimization of the antimicrobial peptide Bac7 by deep mutational scanning” (BMC Biology, 2022);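 also: peptides expressed intracellularly from a pBAD plasmid library in pooled LB shake-flask culture, induced with 0.3% L-arabinose, DNA abundance read by NGS, three biological replicates, DESeq2 with apeglm shrinkage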", "data": [{"system": "Escherichia coli TOP10", "test": "shrunken log2 fold change of peptide-encoding DNA abundance (4.5 h post-induction vs induction); higher = less antimicrobial activity (less host growth inhibition)", "details": "time post-induction: 4.5 h; library: site-saturation at positions 5, 18, 19, 20", "values": [{"sequence": "RRIRYRPPRLPRPRPRPYNKPRP", "shrunken log2 fold change": -0.734}, {"sequence": "RRIRNRPPRLPRPRPRPPQKPRP", "shrunken log2 fold change": 0.544}, {"sequence": "RRIRVRPPRLPRPRPRPGTAPRP", "shrunken log2 fold change": 0.136}, {"sequence": "RRIRQRPPRLPRPRPRPSMEPRP", "shrunken log2 fold change": 0.0775}, {"sequence": "RRIRTRPPRLPRPRPRPCDQPRP", "shrunken log2 fold change": -0.252}, {"sequence": "RRIRQRPPRLPRPRPRPGFYPRP", "shrunken log2 fold change": 0.116}, {"sequence": "RRIRPRPPRLPRPRPRPGGQPRP", "shrunken log2 fold change": -0.0466}, {"sequence": "RRIRSRPPRLPRPRPRPRTYPRP", "shrunken log2 fold change": -0.452}, {"sequence": "RRIRARPPRLPRPRPRPQDVPRP", "shrunken log2 fold change": -0.136}, {"sequence": "RRIRDRPPRLPRPRPRPQMFPRP", "shrunken log2 fold change": -0.0311}, {"sequence": "RRIRFRPPRLPRPRPRPHKWPRP", "shrunken log2 fold change": -0.073}, {"sequence": "RRIRDRPPRLPRPRPRPMVPPRP", "shrunken log2 fold change": 0.0555}, {"sequence": "RRIRVRPPRLPRPRPRPGNAPRP", "shrunken log2 fold change": 0.133}, {"sequence": "RRIRFRPPRLPRPRPRPEAKPRP", "shrunken log2 fold change": 0.0369}, {"sequence": "RRIRFRPPRLPRPRPRPHAYPRP", "shrunken log2 fold change": -0.118}, {"sequence": "RRIRGRPPRLPRPRPRPCWAPRP", "shrunken log2 fold change": 0.485}, {"sequence": "RRIRNRPPRLPRPRPRPCRSPRP", "shrunken log2 fold change": -0.0607}, {"sequence": "RRIRWRPPRLPRPRPRPRKYPRP", "shrunken log2 fold change": 0.0119}, {"sequence": "RRIRSRPPRLPRPRPRPEPIPRP", "shrunken log2 fold change": 0.312}, {"sequence": "RRIRARPPRLPRPRPRPAECPRP", "shrunken log2 fold change": 0.041}, {"sequence": "RRIRPRPPRLPRPRPRPGLMPRP", "shrunken log2 fold change": 0.184}, {"sequence": "RRIRHRPPRLPRPRPRPACAPRP", "shrunken log2 fold change": 0.436}, {"sequence": "RRIRERPPRLPRPRPRPYIEPRP", "shrunken log2 fold change": -0.266}, {"sequence": "RRIRQRPPRLPRPRPRPMGDPRP", "shrunken log2 fold change": 0.0563}, {"sequence": "RRIRARPPRLPRPRPRPVKDPRP", "shrunken log2 fold change": 0.284}, {"sequence": "RRIRIRPPRLPRPRPRPQILPRP", "shrunken log2 fold change": 0.0356}, {"sequence": "RRIRKRPPRLPRPRPRPIHGPRP", "shrunken log2 fold change": -0.122}, {"sequence": "RRIRARPPRLPRPRPRPDQPPRP", "shrunken log2 fold change": 0.0452}, {"sequence": "RRIRHRPPRLPRPRPRPQWTPRP", "shrunken log2 fold change": -0.00992}, {"sequence": "RRIRVRPPRLPRPRPRPFGGPRP", "shrunken log2 fold change": -0.216}, {"sequence": "RRIRFRPPRLPRPRPRPFYNPRP", "shrunken log2 fold change": -0.468}, {"sequence": "RRIRYRPPRLPRPRPRPSFYPRP", "shrunken log2 fold change": -1.06}, {"sequence": "RRIRMRPPRLPRPRPRPADQPRP", "shrunken log2 fold change": -0.0145}, {"sequence": "RRIRQRPPRLPRPRPRPICPPRP", "shrunken log2 fold change": 0.128}, {"sequence": "RRIRVRPPRLPRPRPRPCDTPRP", "shrunken log2 fold change": 0.0884}, {"sequence": "RRIRNRPPRLPRPRPRPKWMPRP", "shrunken log2 fold change": -0.19}, {"sequence": "RRIRARPPRLPRPRPRPFRYPRP", "shrunken log2 fold change": -0.283}, {"sequence": "RRIRDRPPRLPRPRPRPIENPRP", "shrunken log2 fold change": -0.144}, {"sequence": "RRIRSRPPRLPRPRPRPLDVPRP", "shrunken log2 fold change": -0.21}, {"sequence": "RRIRFRPPRLPRPRPRPPDSPRP", "shrunken log2 fold change": 0.0539}, {"sequence": "RRIRPRPPRLPRPRPRPLCMPRP", "shrunken log2 fold change": -0.444}, {"sequence": "RRIRGRPPRLPRPRPRPIHQPRP", "shrunken log2 fold change": -0.0704}, {"sequence": "RRIRCRPPRLPRPRPRPYGYPRP", "shrunken log2 fold change": -0.0837}, {"sequence": "RRIRPRPPRLPRPRPRPLHPPRP", "shrunken log2 fold change": 0.252}, {"sequence": "RRIRDRPPRLPRPRPRPILDPRP", "shrunken log2 fold change": 0.0609}, {"sequence": "RRIRWRPPRLPRPRPRPHTWPRP", "shrunken log2 fold change": -0.134}, {"sequence": "RRIRKRPPRLPRPRPRPRWTPRP", "shrunken log2 fold change": 0.347}, {"sequence": "RRIRKRPPRLPRPRPRPRQIPRP", "shrunken log2 fold change": 0.298}, {"sequence": "RRIRWRPPRLPRPRPRPHDQPRP", "shrunken log2 fold change": 0.36}, {"sequence": "RRIRMRPPRLPRPRPRPRMHPRP", "shrunken log2 fold change": 0.118}, {"sequence": "RRIRRRPPRLPRPRPRPVKSPRP", "shrunken log2 fold change": 0.625}, {"sequence": "RRIRCRPPRLPRPRPRPGNLPRP", "shrunken log2 fold change": -0.167}, {"sequence": "RRIRRRPPRLPRPRPRPGHDPRP", "shrunken log2 fold change": 0.0801}, {"sequence": "RRIRVRPPRLPRPRPRPYMTPRP", "shrunken log2 fold change": -0.566}, {"sequence": "RRIRTRPPRLPRPRPRPPKNPRP", "shrunken log2 fold change": -0.0268}, {"sequence": "RRIRRRPPRLPRPRPRPACMPRP", "shrunken log2 fold change": 0.479}, {"sequence": "RRIRSRPPRLPRPRPRPVVAPRP", "shrunken log2 fold change": 0.608}, {"sequence": "RRIRLRPPRLPRPRPRPTTGPRP", "shrunken log2 fold change": 0.0715}, {"sequence": "RRIRWRPPRLPRPRPRPCLYPRP", "shrunken log2 fold change": -0.0689}, {"sequence": "RRIRDRPPRLPRPRPRPTIQPRP", "shrunken log2 fold change": -0.0142}]}]}
